According to paper PMC3413153:
Where a chain is given by its changes, count along the chain named.

Legend:
[1] = molecular target: T1, KSRP KH1 (human, UniProt Q92945); experiment: NMR
T1 sequence: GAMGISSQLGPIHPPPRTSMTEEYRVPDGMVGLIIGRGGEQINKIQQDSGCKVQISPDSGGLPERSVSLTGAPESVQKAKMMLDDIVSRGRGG

[2] = molecular target: ZBP1 KH34 (Y396F) (UniProt Q9NZI8, Y396F); experiment: NMR
[3] = molecular target: T2, KSRP KH3 (human, UniProt Q92945); experiment: NMR
T2 sequence: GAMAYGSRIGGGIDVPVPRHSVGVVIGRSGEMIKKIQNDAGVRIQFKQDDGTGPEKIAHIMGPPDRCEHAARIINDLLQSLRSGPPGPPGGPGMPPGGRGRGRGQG

[4] = molecular target: T3, KSRP KH2 (human, UniProt Q92945); experiment: NMR
T3 sequence: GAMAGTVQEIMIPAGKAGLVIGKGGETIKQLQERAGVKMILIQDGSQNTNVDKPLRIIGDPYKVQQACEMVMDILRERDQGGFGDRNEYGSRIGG

[5] = molecular target: T4, KSRP KH4 (human, UniProt Q92945); experiment: NMR
T4 sequence: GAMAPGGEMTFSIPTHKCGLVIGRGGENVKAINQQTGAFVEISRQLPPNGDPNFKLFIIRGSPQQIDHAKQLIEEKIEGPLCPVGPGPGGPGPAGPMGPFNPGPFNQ

[6] = molecular target: T5, KSRP KH1-4, KH2 mutant (human, UniProt Q92945 68-525, K251D;G252D); experiment: BLI
T5 sequence: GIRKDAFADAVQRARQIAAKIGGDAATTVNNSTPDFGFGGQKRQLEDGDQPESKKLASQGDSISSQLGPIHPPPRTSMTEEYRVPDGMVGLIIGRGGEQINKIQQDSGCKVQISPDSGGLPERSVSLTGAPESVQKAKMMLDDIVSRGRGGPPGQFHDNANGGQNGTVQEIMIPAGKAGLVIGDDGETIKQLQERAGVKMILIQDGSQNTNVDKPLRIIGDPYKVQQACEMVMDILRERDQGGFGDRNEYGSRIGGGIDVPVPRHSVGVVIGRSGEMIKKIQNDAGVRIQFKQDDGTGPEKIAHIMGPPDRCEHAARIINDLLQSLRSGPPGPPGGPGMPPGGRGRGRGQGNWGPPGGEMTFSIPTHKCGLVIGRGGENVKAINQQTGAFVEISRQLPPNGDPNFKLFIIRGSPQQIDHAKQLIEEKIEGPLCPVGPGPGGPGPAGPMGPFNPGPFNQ

[7] = molecular target: T6, KSRP KH1-4, KH1 mutant (human, UniProt Q92945 68-525, R162D;G163D); experiment: BLI
T6 sequence: T5 sequence with R95D, G96D, D184K, D185G

[8] = molecular target: T7, KSRP KH1-4, KH3 mutant (human, UniProt Q92945 68-525, R340D;S341D); experiment: BLI
T7 sequence: T5 sequence with D184K, D185G, R273D, S274D

[9] = molecular target: T8, KSRP KH1-4, KH4 mutant (human, UniProt Q92945 68-525, R442D;G443D); experiment: BLI
T8 sequence: T5 sequence with D184K, D185G, R375D, G376D

[10] = molecular target: T9, KSRP KH1-4 WT (human, UniProt Q92945); experiment: BLI
T9 sequence: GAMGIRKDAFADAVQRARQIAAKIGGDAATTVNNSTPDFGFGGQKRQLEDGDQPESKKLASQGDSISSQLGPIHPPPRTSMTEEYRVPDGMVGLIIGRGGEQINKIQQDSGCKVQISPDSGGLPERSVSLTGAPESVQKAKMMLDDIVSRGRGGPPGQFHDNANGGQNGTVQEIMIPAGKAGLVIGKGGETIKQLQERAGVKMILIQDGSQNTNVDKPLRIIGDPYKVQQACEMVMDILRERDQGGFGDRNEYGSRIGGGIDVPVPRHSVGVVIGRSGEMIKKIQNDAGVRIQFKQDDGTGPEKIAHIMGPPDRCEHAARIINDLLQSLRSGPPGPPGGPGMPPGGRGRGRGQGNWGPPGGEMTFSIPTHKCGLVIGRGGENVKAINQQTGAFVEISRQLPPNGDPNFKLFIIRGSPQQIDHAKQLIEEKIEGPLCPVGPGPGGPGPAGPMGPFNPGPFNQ

## UUGGG (ssRNA)
[1]
  binding result: binds

## GCACACCC (ssRNA)
[2]
  binding result: binds

## UGGGU (ssRNA)
[3]
  binding result: binds

## UUUAG (ssRNA)
[4]
  binding result: binds

## UAGGG (ssRNA)
[5]
  binding result: binds

## GUGUGUUAUUAUUUAUUAUUUAUUUAUUAUUUAUUUAUUCAG (ssRNA) [TNFalpha BLI ARE 42-mer]
[6]
  Kd: 43 ± 14 nM
[7]
  Kd: 7.3 ± 1.7 nM
[8]
  Kd: 95 ± 19 nM
[9]
  Kd: 50 ± 16 nM
[10]
  Kd: 3.6 ± 1.4 nM
